This experiment concerns the target full-length IRG1 from Bacillus subtilis (immune-responsive gene 1, cis-aconitate decarboxylase) (Bacillus subtilis). Briefly: SEC-MALS; Superdex 200 10/300, 20 mM Tris-HCl (pH 8.0), 150 mM NaCl, 0.4 mL/min, room temperature; DAWN-treos MALS detector.

“full-length IRG1 from Bacillus subtilis (immune-responsive gene 1, cis-aconitate decarboxylase) (enzyme)” yielded a stoichiometry N of 2.

The term stoichiometry N denotes the number of molecules, sites or subunits per partner or assembly.

The values are drawn from publication PMC7347537.
